We go through six sequences from patent publication US20240376455.

Common to all, as to assay: cleavage_in_vitro
In data set [1] the test system is T1, LPG10160 (Chryseobacterium ureilyticum).
T1 sequence: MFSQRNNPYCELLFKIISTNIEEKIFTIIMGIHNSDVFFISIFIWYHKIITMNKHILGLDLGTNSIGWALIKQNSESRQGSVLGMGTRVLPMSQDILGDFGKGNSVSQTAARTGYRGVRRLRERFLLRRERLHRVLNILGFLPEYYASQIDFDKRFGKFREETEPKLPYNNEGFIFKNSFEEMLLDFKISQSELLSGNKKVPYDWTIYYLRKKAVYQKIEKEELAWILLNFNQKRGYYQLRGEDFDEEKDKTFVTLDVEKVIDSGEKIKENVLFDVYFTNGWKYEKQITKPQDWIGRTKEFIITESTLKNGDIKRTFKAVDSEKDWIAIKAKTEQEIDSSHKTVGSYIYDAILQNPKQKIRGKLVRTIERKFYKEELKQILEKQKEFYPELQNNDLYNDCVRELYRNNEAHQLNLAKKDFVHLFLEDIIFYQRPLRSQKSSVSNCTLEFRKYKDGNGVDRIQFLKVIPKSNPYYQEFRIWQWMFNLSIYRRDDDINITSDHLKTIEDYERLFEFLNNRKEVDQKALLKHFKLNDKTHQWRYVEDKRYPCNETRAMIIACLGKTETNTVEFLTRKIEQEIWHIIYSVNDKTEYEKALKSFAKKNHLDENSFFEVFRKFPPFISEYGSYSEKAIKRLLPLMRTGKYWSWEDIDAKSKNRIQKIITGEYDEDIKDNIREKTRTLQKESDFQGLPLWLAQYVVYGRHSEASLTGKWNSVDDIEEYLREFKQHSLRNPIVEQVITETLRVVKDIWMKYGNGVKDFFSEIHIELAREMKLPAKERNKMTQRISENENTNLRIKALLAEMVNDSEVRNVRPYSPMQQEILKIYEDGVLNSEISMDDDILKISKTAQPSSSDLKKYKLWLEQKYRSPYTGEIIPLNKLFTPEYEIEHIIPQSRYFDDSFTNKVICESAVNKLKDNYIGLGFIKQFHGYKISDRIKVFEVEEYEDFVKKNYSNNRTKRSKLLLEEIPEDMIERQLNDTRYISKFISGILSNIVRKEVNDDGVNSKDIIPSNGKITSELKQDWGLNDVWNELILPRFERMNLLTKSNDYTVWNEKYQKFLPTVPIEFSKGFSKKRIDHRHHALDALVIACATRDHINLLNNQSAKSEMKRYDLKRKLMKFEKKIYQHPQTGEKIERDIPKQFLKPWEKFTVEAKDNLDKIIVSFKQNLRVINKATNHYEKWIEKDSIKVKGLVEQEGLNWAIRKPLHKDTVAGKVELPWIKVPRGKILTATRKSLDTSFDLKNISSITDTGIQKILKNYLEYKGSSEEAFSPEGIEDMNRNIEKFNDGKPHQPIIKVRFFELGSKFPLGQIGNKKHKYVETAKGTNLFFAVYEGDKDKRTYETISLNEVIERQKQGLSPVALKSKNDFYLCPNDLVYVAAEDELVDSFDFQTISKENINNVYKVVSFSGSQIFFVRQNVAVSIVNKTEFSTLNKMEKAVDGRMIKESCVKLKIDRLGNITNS
As to conditions: PAM SEQ ID 84; 35% pure protein.

The subject of data set [2] is T2, LPG10134 (Brevundimonas vesicularis).
T2 sequence: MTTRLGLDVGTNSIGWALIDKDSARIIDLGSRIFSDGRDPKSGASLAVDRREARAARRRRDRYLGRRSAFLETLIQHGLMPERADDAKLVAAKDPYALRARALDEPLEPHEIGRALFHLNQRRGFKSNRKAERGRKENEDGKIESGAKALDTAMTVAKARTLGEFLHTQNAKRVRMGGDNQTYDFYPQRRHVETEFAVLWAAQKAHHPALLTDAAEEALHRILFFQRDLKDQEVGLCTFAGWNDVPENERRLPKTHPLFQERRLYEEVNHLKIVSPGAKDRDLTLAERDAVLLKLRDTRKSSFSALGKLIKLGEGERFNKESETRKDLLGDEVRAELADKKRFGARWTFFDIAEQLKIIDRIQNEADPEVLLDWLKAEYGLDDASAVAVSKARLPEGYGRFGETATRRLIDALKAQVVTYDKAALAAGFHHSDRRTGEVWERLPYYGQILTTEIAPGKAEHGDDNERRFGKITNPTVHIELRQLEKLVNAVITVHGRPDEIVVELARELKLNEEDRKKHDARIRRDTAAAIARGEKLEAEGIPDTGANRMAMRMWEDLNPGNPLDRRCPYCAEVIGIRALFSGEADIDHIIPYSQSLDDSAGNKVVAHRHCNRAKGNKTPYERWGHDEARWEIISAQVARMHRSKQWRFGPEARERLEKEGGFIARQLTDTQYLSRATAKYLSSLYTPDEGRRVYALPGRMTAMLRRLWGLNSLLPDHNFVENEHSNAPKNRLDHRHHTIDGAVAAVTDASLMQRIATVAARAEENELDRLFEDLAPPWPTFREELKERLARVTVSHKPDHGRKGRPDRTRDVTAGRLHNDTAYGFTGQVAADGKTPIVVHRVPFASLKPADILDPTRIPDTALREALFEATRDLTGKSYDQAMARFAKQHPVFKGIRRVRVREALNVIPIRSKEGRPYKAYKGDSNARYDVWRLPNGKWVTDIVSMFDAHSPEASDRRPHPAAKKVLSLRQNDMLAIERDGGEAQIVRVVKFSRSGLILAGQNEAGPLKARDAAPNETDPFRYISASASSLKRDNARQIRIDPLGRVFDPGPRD
The conditions noted are these: PAM NGG; 37C 120 min.

Data set [3] has as its system T3, LPG10155 (Chryseobacterium geocarposphaerae).
T3 sequence: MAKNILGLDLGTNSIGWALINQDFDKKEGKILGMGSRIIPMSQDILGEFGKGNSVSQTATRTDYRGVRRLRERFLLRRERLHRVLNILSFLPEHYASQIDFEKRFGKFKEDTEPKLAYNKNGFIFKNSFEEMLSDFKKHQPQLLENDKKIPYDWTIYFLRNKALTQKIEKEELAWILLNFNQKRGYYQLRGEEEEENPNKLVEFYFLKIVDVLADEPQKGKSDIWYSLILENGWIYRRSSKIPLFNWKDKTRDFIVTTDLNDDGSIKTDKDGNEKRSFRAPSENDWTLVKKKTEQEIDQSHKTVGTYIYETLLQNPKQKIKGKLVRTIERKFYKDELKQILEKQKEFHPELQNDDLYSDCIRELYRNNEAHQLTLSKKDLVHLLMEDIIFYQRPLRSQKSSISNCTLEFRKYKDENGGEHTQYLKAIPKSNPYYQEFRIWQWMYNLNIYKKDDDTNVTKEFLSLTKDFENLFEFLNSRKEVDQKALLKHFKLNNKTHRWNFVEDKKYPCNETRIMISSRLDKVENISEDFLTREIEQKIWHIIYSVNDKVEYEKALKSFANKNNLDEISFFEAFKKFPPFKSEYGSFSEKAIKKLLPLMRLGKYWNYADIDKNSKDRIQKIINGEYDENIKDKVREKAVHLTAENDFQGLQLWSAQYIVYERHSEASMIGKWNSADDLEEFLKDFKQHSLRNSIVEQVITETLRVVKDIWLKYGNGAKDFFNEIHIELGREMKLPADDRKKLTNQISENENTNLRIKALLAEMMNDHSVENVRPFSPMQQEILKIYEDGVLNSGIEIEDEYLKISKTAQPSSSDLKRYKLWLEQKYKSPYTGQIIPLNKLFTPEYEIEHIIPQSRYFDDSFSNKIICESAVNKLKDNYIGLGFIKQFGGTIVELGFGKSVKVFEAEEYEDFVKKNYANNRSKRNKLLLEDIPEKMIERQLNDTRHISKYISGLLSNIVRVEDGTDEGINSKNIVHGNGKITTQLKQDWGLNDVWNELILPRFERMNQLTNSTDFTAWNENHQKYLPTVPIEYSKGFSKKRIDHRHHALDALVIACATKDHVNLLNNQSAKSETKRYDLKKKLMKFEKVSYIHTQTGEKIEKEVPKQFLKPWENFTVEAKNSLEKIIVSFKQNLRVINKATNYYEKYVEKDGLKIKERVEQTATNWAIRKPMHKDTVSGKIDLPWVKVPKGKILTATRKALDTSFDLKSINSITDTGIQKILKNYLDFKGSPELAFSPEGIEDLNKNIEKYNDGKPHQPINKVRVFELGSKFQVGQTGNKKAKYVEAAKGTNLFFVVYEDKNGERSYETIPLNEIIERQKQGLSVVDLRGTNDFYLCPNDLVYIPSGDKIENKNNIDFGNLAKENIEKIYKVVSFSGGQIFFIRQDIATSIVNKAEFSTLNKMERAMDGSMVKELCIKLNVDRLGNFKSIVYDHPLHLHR
As to conditions: PAM SEQ ID 82.

“GUUGUGAUUUGCUUUAAAGAAAGCAAUUCACAAUAAGGAUUAUUCCGUUGUGAAAACAUUUAAGCCCCCUCGUCUUACAAUACGGGGAUUU / GGACAGCAGCTTCCTATATCTCGTACAAATATTC / GAATATTTGTACGAGATATAGGAAGCTGCTGTCC [LPG10160 sgRNA L1 ; Library 1 target AAATATTC]” had an activity (% target strand cleaved) in data set [1] of 0.
Sequence “GUUGCCGCUGGCCUUCGAUUUCUGAAAAGUCAGAAAUCGAAGGCUGGCUGUUAACAAGCAGCUAGACUGCACCAAAUAAGGGCGGGGCUACGGCCCCGUCUUUUGAGCGGACAGCAGCUUCCUAUAUCUCGUAC / GGACAGCAGCTTCCTATATCTCGTACAGGACCTC / GAGGTCCTGTACGAGATATAGGAAGCTGCTGTCC [LPG10134 sgRNA L1 ; Library 1 target AGGACCTC]” returned an activity (% target strand cleaved) in data set [2] of 0.
Regarding “CCAUGAUAUAGACGUUGUGGCUGUUGUAGUGUUGCCGCUGGCCUUCGAUUUCUGAAAAGUCAGAAAUCGAAGGCUGGCUGUUAACAAGCAGCUAGACUGCACCAAAUAAGGGCGGGGCUACGGCCCCGUCUUUU / GATATAGACGTTGTGGCTGTTGTAGTAGGACCTC / GAGGTCCTACTACAACAGCCACAACGTCTATATC [LPG10134 sgRNA L2 ; Library 2 target AGGACCTC]”, the activity (% target strand cleaved) in data set [2] turned out to be 0.
Consider “GUUGUGAUUUGCUUUAAAGAAAGCAAUUCACAAUAAGGAUUAUUCCGUUGUGAAAACAUUUAAGCCCCCUCGUCUUACAAUACGGGGAUUU / GATATAGACGTTGTGGCTGTTGTAGTAAATATTC / GAATATTTACTACAACAGCCACAACGTCTATATC [LPG10160 sgRNA L2 ; Library 2 target AAATATTC]”, for which the activity (% target strand cleaved) in data set [1] stood at 0.
For “GUUGUGAAUUGCUUUAAAGAAAGCAAUUCACAAUAAGGAUUAUUCCGUUGUGAAAACAUCUAGCGCCUCGUCUAUCUACGGGGCAUUUU / GATATAGACGTTGTGGCTGTTGTAGTAGAAATTC / GAATTTCTACTACAACAGCCACAACGTCTATATC [LPG10155 sgRNA L2 ; Library 2 target AGAAATTC]”, the activity (% target strand cleaved) in data set [3] stood at 7.6.
On the same count and under the same terms, as for “GUUGUGAAUUGCUUUAAAGAAAGCAAUUCACAAUAAGGAUUAUUCCGUUGUGAAAACAUCUAGCGCCUCGUCUAUCUACGGGGCAUUUU / GGACAGCAGCTTCCTATATCTCGTACAGAAATTC / GAATTTCTGTACGAGATATAGGAAGCTGCTGTCC [LPG10155 sgRNA L1 ; Library 1 target AGAAATTC]”, the figure is 32.7.
